In experiment [1] the target is Human Siglec-9 (human) (UniProt Q9Y336). Put plainly: flow cytometry titration on neuraminidase-treated moDCs, goat F(ab')2 anti-human IgG (Fc) PE; table under the right panel; the curve itself is flat. (In general: In flow cytometry, cells or beads pass a laser one at a time.)
The target is the same in experiment [2]. Put plainly: flow cytometry titration on untreated monocyte-derived dendritic cells (moDCs), goat F(ab')2 anti-human IgG (Fc) PE; table under the left panel; the curve itself is flat.
A further experiment addresses Human Siglec-7 (human) (UniProt Q9Y286). Put plainly: flow cytometry on fresh purified human NK cells (CD3-/CD56+), isotype control staining.
Experiment [3] has as its target Human Siglec-9 (human) (UniProt Q9Y336). The experiment is described as above.

Chain of Human Siglec-9 (human) (Q9Y336 18-463): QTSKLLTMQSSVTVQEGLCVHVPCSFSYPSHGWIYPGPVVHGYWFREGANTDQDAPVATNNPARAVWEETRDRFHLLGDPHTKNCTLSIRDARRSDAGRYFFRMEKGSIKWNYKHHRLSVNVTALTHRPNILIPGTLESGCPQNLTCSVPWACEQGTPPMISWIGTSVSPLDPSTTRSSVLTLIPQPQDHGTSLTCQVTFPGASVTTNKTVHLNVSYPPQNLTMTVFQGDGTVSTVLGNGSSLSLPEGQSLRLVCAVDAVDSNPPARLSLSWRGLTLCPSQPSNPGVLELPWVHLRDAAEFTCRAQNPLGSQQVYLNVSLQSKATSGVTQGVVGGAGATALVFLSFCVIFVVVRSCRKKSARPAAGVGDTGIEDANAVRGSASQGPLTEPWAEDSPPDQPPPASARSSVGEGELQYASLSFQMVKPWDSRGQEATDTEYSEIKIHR
Chain of Human Siglec-7 (human) (Q9Y286 19-467): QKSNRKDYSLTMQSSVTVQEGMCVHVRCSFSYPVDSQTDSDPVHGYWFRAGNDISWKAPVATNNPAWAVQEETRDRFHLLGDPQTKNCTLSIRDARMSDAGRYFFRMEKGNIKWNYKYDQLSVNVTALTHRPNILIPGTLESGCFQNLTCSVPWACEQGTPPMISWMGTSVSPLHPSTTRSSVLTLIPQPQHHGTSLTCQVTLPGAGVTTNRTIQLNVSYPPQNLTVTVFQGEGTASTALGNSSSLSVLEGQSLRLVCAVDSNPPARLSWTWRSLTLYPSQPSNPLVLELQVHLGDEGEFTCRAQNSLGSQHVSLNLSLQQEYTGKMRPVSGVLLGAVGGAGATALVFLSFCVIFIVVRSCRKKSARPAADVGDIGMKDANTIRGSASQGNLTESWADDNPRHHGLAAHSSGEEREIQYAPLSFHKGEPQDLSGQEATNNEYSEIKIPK

As a reminder, the EC50 is the concentration at which the effect is half-maximal. A high value points to lower potency in that assay. For the substance Isotype control (antibody), the results for the concentration giving a half-maximal response (EC50) in the experiment with Human Siglec-9 (human) [1] and with Human Siglec-9 (human) [2] were 1.22 µg/mL and 2.24 µg/mL, respectively.

Take Isotype control - APC (antibody): in the experiment with Human Siglec-7 (human), the percent of NK cells in quadrant Q1 (APC positive, PE negative) worked out at 0.975% and the percent of NK cells in quadrant Q2 (APC positive, PE positive) was 0.34%.

In the experiment with Human Siglec-9 (human) [3], Isotype control - PE (antibody) had a percent of NK cells in quadrant Q2 (APC positive, PE positive) of 0.34% and a percent of NK cells in quadrant Q3 (PE positive, APC negative) of 2.54%.

The values above are taken from patent US20200369765A1.
